Data: CN108264558A (SHANGHAI NOVOPROTEIN BIOTECHNOLOGY CO LTD, dated 2018)

How the values were obtained:
Experiment in all cases: ELISA, target coated at 1 μg/ml, TsM titrated from 10 μg/ml
CD19-CD3-GITRL TsM_D = target: T1, CD19-CD3-GITRL TsM_D
T1 construct: Disulfide-linked, glycosylated dimer; also called 二聚体形式的抗CD19/抗CD3/GITRL三特异性分子

CD19-CD3-GITRL TsM_M = target: T2, CD19-CD3-GITRL TsM_M
T2 construct: CHO-S expressed, N-glycosylated monomer; also called 单体形式的抗CD19/抗CD3/GITRL三特异性分子

CD19-CD3-B7RP-1 TsM_D = target: T3, CD19-CD3-B7RP-1 TsM_D
T3 construct: Disulfide-linked, glycosylated dimer; also called 二聚体形式的抗CD19/抗CD3/B7RP-1三特异性分子

CD19-CD3-B7RP-1 TsM_M = target: T4, CD19-CD3-B7RP-1 TsM_M
T4 construct: CHO-S expressed, N-glycosylated monomer; also called 单体形式的抗CD19/抗CD3/B7RP-1三特异性分子

CD19-CD3-OX40L TsM_D = target: T5, CD19-CD3-OX40L TsM_D
T5 construct: Disulfide-linked, glycosylated dimer; also called 二聚体形式的抗CD19/抗CD3/OX40L三特异性分子

CD19-CD3-4-1BBL TsM_D = target: T6, CD19-CD3-4-1BBL TsM_D
T6 construct: Two chains joined by disulfide bonds of the IgD hinge (dimer by non-reducing SDS-PAGE and mass spectrometry); also called 二聚体形式的抗CD19/抗CD3/4-1BBL三特异性分子; 二聚体形式的TiTE三特异分子

CD19-CD3-CD70 TsM_M = target: T7, CD19-CD3-CD70 TsM_M
T7 construct: CHO-S expressed, N-glycosylated monomer; also called 单体形式的抗CD19/抗CD3/CD70三特异性分子

CD19-CD3-4-1BBL TsM_M = target: T8, CD19-CD3-4-1BBL TsM_M
T8 construct: monomer confirmed by SDS-PAGE and mass spectrometry; also called 单体形式的抗CD19/抗CD3/4-1BBL三特异性分子; 单体形式的TiTE三特异分子

CD19-CD3-OX40L TsM_M = target: T9, CD19-CD3-OX40L TsM_M
T9 construct: CHO-S expressed, N-glycosylated monomer; also called 单体形式的抗CD19/抗CD3/OX40L三特异性分子

CD19-CD3-CD70 TsM_D = target: T10, CD19-CD3-CD70 TsM_D
T10 construct: Disulfide-linked, glycosylated dimer; also called 二聚体形式的抗CD19/抗CD3/CD70三特异性分子

Measured: binding result

B1: 人类GITR-hFc融合蛋白 (Fc fusion)
chain: QRPTGGPGCGPGRLLLGTGTDARCCRVHTTRCCRDYPGEECCSEWDCMCVQPEFHCGDPCCTTCRHHPCPPGQGVQSQGKFSFGFQCIDCASGTFSGGHEGHCKPWTDCTQFGFLTVFPGNKTHNAVCVPGSPPAE
notes: Bought from 吴江近岸蛋白质科技有限公司; also called 重组蛋白GITR-hFc; T细胞正共刺激分子GITR-hFc; not shown: human Fc (hFc)
binds: CD19-CD3-GITRL TsM_D | CD19-CD3-GITRL TsM_M

B2: 人类ICOS-hFc融合蛋白 (Fc fusion)
chain: EINGSANYEMFIFHNGGVQILCKYPDIVQQFKMQLLKGGQILCDLTKTKGSGNTVSIKSLKFCHSQLSNNSVSFFLYNLDHSHANYYFCNLSIFDPPPFKVTLTGGYLHIYESQLCCQLK
notes: Bought from 吴江近岸蛋白质科技有限公司; also called 重组蛋白ICOS-hFc; T细胞正共刺激分子ICOS-hFc; not shown: human Fc (hFc)
binds: CD19-CD3-B7RP-1 TsM_D | CD19-CD3-B7RP-1 TsM_M

B3: 人类CD19-hFc融合蛋白 (Fc fusion, human, UniProt P15391 20-291, looked up)
chain: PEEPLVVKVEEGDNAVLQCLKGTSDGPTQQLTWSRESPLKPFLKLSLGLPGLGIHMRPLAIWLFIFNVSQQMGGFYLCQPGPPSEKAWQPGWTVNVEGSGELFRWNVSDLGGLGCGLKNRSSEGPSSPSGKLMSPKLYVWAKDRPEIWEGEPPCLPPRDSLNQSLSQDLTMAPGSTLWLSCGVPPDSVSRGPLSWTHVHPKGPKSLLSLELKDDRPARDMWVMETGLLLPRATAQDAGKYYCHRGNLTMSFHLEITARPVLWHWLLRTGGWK
notes: Bought from 吴江近岸蛋白质科技有限公司; Coated at 1 μg/ml in ELISA; also called 重组抗原CD19-hFc; 抗原CD19-hFc; not shown: human Fc (hFc)
binds: all assays above
